# Measured values reported in the supplement of paper PMC10724198.
# ± gives the standard deviation of the averaged measurements.
# Assays:
# Assay in all cases: protein stability index of tFT-peptide fusion (C-terminal peptide) (PSI (0-1 scale)); higher = more stable (slower turnover)
# Saccharomyces cerevisiae [1] = conditions: temperature: 30 C
# Experimental: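 MPS profiling in S. cerevisiae of the yeast C-terminome library: the last 12 aa of each annotated ORF are fused to the C-terminus of a sfGFP-mCherry timer, after a GGGS linker. Cells are FACS-sorted into 8 mCherry/sfGFP bins and deep-sequenced. PSI runs from 0 (unstable) to 1 (stable); wild type and das1Δ backgrounds, two technical replicates each.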
# Saccharomyces cerevisiae [2] = test system: Saccharomyces cerevisiae
# Experimental: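 MPS profiling in S. cerevisiae of the tFT-X12 degron library: putative degron peptides plus stable controls, 12 aa, fused to the C-terminus of a sfGFP-mCherry timer. Cells are FACS-sorted into 8 mCherry/sfGFP bins and deep-sequenced. PSI runs from 0 (unstable) to 1 (stable). Backgrounds are wild type, das1Δ and doa10Δ at 30 °C, and wild type, das1Δ, cdc34-1 and cdc53-1 at 37 °C; 2-3 technical replicates each.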
# Saccharomyces cerevisiae [3] = conditions: genetic background: wild type; temperature: 30 C
# [4] = genetic background: das1 deletion
Sequence,protein stability index (Saccharomyces cerevisiae [1]; [4]),protein stability index (Saccharomyces cerevisiae [1]; genetic background: wild type),other results
AADPLSNDALFK [BRX1 C-terminal 12 aa],0.733 ± 0.063,0.737 ± 0.12,
AADRDNKKDEST [XRN1 C-terminal 12 aa],0.6981 ± 0.0034,0.668 ± 0.057,
AAGKANKQFAKF [RPS11A C-terminal 12 aa],0.8136 ± 0.0019,0.807 ± 0.042,
AAIPVILAKIKV [SHE4 C-terminal 12 aa],0.502 ± 0.019,0.56 ± 0.13,
ACYVQLKKSGAF [COX8 C-terminal 12 aa],0.6966 ± 0.0035,0.669 ± 0.024,
AGATTSRFIPLK [RPS15 C-terminal 12 aa],0.685 ± 0.023,0.652 ± 0.01,
AGTDKNTHPSSQ [SNT2 C-terminal 12 aa],0.692 ± 0.0098,0.694 ± 0.019,
AIEEGAGAFLLS [UFD4 C-terminal 12 aa],0.706 ± 0.03,0.6771 ± 0.0053,
AIFTAFTQVVLI [TOH1 C-terminal 12 aa],0.4858 ± 0.0044,0.4983 ± 0.00094,
AIHLEAVSLVDC [CIS3 C-terminal 12 aa],0.599 ± 0.011,0.611 ± 0.024,
AKELISAIFFGE [TAF6 C-terminal 12 aa],0.698 ± 0.057,0.6614 ± 0.0044,
AKGLAKTEIANQ [GIR2 C-terminal 12 aa],0.686 ± 0.018,0.656 ± 0.013,
AKPAYHWQTRYR [KIN3 C-terminal 12 aa],0.703 ± 0.021,0.665 ± 0.017,
AKVYFLGRDSSI [NDE1 C-terminal 12 aa],0.708 ± 0.016,0.741 ± 0.076,
ALENENKRKAKL [CAT2 C-terminal 12 aa],0.79 ± 0.015,0.798 ± 0.11,
ALGLAGAVMMLL [SPI1 C-terminal 12 aa],0.693 ± 0.013,0.746 ± 0.025,
ALQKQIKNALPC [PTP2 C-terminal 12 aa],0.694 ± 0.024,0.69 ± 0.029,
ALSCLGHSKIFI [YML094C-A C-terminal 12 aa],0.7082 ± 0.0041,0.706 ± 0.012,
ALSKDGIYTITN [PAU13 C-terminal 12 aa],0.706 ± 0.027,0.679 ± 0.014,
AMDYAISIENIV [RPN12 C-terminal 12 aa],0.665 ± 0.015,0.646 ± 0.015,
ANFECSSWKFAS [EFM5 C-terminal 12 aa],0.7167 ± 0.0049,0.646 ± 0.0085,

Sequence,protein stability index (Saccharomyces cerevisiae [1]; [4]),protein stability index (Saccharomyces cerevisiae [1]; genetic background: wild type),other results
APPKLNNSSESE [STE23 C-terminal 12 aa],0.681 ± 0.0074,0.674 ± 0.0091,
AQGGFAQWATGQ [APS3 C-terminal 12 aa],0.718 ± 0.0089,0.683 ± 0.04,
AQNFILFHDYLH [YLR365W C-terminal 12 aa],0.698 ± 0.012,0.711 ± 0.032,
ASFVEVNAEVFL [FRS1 C-terminal 12 aa],0.7129 ± 0.0051,0.7111 ± 0.0032,
ASNGVRLSEIGW [SNZ1 C-terminal 12 aa],0.699 ± 0.011,0.694 ± 0.027,
ASVIPGGCLGNL [ZPS1 C-terminal 12 aa],0.703 ± 0.018,0.685 ± 0.018,
AVASFFLRNKRR [FIS1 C-terminal 12 aa],0.7073 ± 0.0052,0.69 ± 0.027,
AVENQFFSQKKK [ACS2 C-terminal 12 aa],0.707 ± 0.044,0.697 ± 0.034,
AVNALNEAMDKL [BNA5 C-terminal 12 aa],0.677 ± 0.015,0.696 ± 0.11,
AVYEELVHELFH [PSP1 C-terminal 12 aa],0.72 ± 0.021,0.675 ± 0.031,
AYEPFSFRAIIE [STV1 C-terminal 12 aa],0.686 ± 0.008,0.723 ± 0.035,
CAAVEKGPILDA [THI74 C-terminal 12 aa],0.691 ± 0.019,0.682 ± 0.021,
CGCQLAVAMTTC [YFL015W-A C-terminal 12 aa],0.553 ± 0.039,0.513 ± 0.013,
CLILSQYSILMD [ATG18 C-terminal 12 aa],0.631 ± 0.038,0.616 ± 0.045,
CLMVSFLLLFGV [OLI1 C-terminal 12 aa],0.315 ± 0.0097,0.3088 ± 0.0016,
CLSGGLLRKIPK [TMH18 C-terminal 12 aa],0.722 ± 0.087,0.6861 ± 0.006,
CPPTIEIGGGGH [MIR1 C-terminal 12 aa],0.712 ± 0.0075,0.706 ± 0.0053,
CSLINSCAFFCL [YDR413C C-terminal 12 aa],0.704 ± 0.012,0.647 ± 0.013,
CSTRRSYLRYKK [YBR285W C-terminal 12 aa],0.705 ± 0.0047,0.6634 ± 0.0014,
VVGLSLLFSGGV,,,"protein stability index (Saccharomyces cerevisiae [2]; genetic background: cdc34-1, temperature: 37 C): 0.687 ± 0.011; protein stability index (Saccharomyces cerevisiae [2]; genetic background: cdc53-1, temperature: 37 C): 0.755 ± 0.021; protein stability index (Saccharomyces cerevisiae [2]; genetic background: das1 deletion, temperature: 30 C): 0.644 ± 0.015; protein stability index (Saccharomyces cerevisiae [2]; genetic background: das1 deletion, temperature: 37 C): 0.7583 ± 0.0016; protein stability index (Saccharomyces cerevisiae [2]; genetic background: doa10 deletion, temperature: 30 C): 0.662 ± 0.025; protein stability index (Saccharomyces cerevisiae [2]; genetic background: wild type, temperature: 30 C): 0.6572 ± 0.0032; protein stability index (Saccharomyces cerevisiae [2]; genetic background: wild type, temperature: 37 C): 0.727 ± 0.0093; protein stability index (Saccharomyces cerevisiae [3]): 0.694 ± 0.021"
